Data from US9603953B2, “Dendrimer compositions, methods of synthesis, and uses thereof” (priority 2014, dated 2017).
“Also recorded” adds a separate entry of the source.

Columns and labels:
Wistar rats = assay: Acute toxicity test after intravenous and intraperitoneal administration in the rat (Example 5); assay type: in vivo; conditions: male Wistar rats, intravenous injection
Description: Species: Wistar rats RjHan: Wi (free of specific pathogens)
Number and sex and Weight: 6 healthy adult rats (males), average weight 300 g
3 groups of male rats: • Group 1 (“G5”): 2 rats (1 and 2) receiving 0.1 ml of labeled solution of dendrimer alone, one via intravenous administration, the other intraperitoneally 1 • Group 2 (“G5-HLS”): 2 rats (3 and 4) receiving 0.1 ml of the solution of the test item “G5 dendrimer {1-nitro-1H-imidazole-methyl -1,2,3-triazol-methyl-di(2-pycolyl)amine}”, one via intravenous administration, the other intraperitoneally • Group 3 (“HLS”): 2 rats (n ° 4 and 5) receiving 0.1 ml of the labeled 1-nitro-1H-imidazole-methyl -1,2,3-triazole-methyl-di-(2-pycolyl) amine, one via intravenous administration, the other intraperitoneally

[1] = Biodistribution after intravenous (intravascular) administration in the rat (Example 5); assay type: in vivo
Text: (§1) The removed organs (brain, kidney, liver, heart, intestine, lung, gonads, blood, urine) were weighed and their activities were counted on NaI gamma camera.

[2] = Biodistribution after in situ direct intrahepatic injection in the rat (Example 6); assay type: in vivo
Description: They were autopsied and major organs were observed macroscopically.
as §1
The assessment of radioactivity was carried out on the various organs and the carcass alone, urine and whole blood.
FIG. 6 is a scintigraphic image of biodistribution after injection: it will be noted that only the liver, stomach and intestines are discernible.

humans = conditions: 1.3 GBq (35 mCi) dose; cited from earlier work

Substance	precipitation or thrombus formation at the injection site (Wistar rats)	liver binding after intravascular administration [1] [% DIg]	retention at the site of introduction ([2]; male rat, laparotomy and direct injection into a liver segment, listed as dendrimer conjugate)	hepatic binding rate ([2]; rat, direct intrahepatic injection, sacrifice at 60 min, 99mTc-labelled) [%]	biodistribution outside the targeted site ([2]; rat, in situ administration at a hepatic lobe, scintigraphy (FIG. 6))	initial injected dose by hepatic mass charged with the test item ([2]; rat, in situ intrahepatic injection, liver) [% DIg]	systemic toxicity in humans (humans)
Dendrimer G5 {1-nitro-1H-Imidazole-methyl-1,2,3-triazol-methyl-di-(2-pycolyl)amine}	no precipitation was observed or thrombus formation	1.53	remains almost stable at the site of introduction; also recorded: has not moved a lot from the site of its deposition	53.7	negligible	33.5	–
rhenium-188 hydroxyethylidene diphosphonate	–	–	–	–	–	–	no significant toxicity
